{"source": "FireProtDB (doi:10.1016/j.jmb.2010.08.048)", "parents": {"B1": {"name": "Glucocorticoid receptor, P04150 (parent)", "chain": "MDSKESLTPGREENPSSVLAQERGDVMDFYKTLRGGATVKVSASSPSLAVASQSDSKQRRLLVDFPKGSVSNAQQPDLSKAVSLSMGLYMGETETKVMGNDLGFPQQGQISLSSGETDLKLLEESIANLNRSTSVPENPKSSASTAVSAAPTEKEFPKTHSDVSSEQQHLKGQTGTNGGNVKLYTTDQSTFDILQDLEFSSGSPGKETNESPWRSDLLIDENCLLSPLAGEDDSFLLEGNSNEDCKPLILPDTKPKIKDNGDLVLSSPSNVTLPQVKTEKEDFIELCTPGVIKQEKLGTVYCQASFPGANIIGNKMSAISVHGVSTSGGQMYHYDMNTASLSQQQDQKPIFNVIPPIPVGSENWNRCQGSGDDNLTSLGTLNFPGRTVFSNGYSSPSMRPDVSSPPSSSSTATTGPPPKLCLVCSDEASGCHYGVLTCGSCKVFFKRAVEGQHNYLCAGRNDCIIDKIRRKNCPACRYRKCLQAGMNLEARKTKKKIKGIQQATTGVSQETSENPGNKTIVPATLPQLTPTLVSLLEVIEPEVLYAGYDSSVPDSTWRIMTTLNMLGGRQVIAAVKWAKAIPGFRNLHLDDQMTLLQYSWMFLMAFALGWRSYRQSSANLLCFAPDLIINEQRMTLPCMYDQCKHMLYVSSELHRLQVSYEEYLCMKTLLLLSSVPKDGLKSQELFDEIRMTYIKELGKAIVKREGNSSQNWQRFYQLTKLLDSMHEVVENLLNYCFQTFLDKTMSIEFPEMLAEIITNQIPKYSNGNIKKLLFHQK"}}}
{"variants_of": "B1", "settings": "Homo sapiens; pH 7.8; Thermal; CD; Tris-HCl 25mM; structure 1M2Z; whole UniProt chain shown", "units": {"Tm": "°C"}}
{"variant": "A605V M752T E705G", "Tm": 52.9}
{"variant": "A605V M752T V702A E705G", "Tm": 54.4}
{"variant": "M752T", "Tm": 48.6}
{"variant": "A605V", "Tm": 49.3}
{"variant": "A605V M752T", "Tm": 51.5}
{"variant": "V702A", "Tm": 47.2}
{"variant": "A605V M752T V702A", "Tm": 53.6}
{"variant": "F602S A605V", "Tm": 54}
{"variant": "F602S", "Tm": 50.3}
{"variant": "F602S A605V M752T", "Tm": 56}
{"variant": "F602S A605V M752T V702A E705G", "Tm": 58.6}
{"variant": "F602S A605V M752T M560K", "Tm": 49.9}
{"variant": "E705G", "Tm": 46.6}
